These results are taken from paper PMC12421950, “Structural insights into manganese-dependent arylsulfatase from Enterococcus faecium and its catalytic promiscuity” (mBio, 2025).

In one data set the target is T1, EfAS (Enterococcus faecium, UniProt I3U6E8).
T1 construct: gene HMPREF0351_12962; synthetic codon-optimised gene in pSMT3, E. coli BL21(DE3); His6-SUMO tag removed by Ulp1; homotetramer, 323 kDa by SEC; residues 9-488 modelled; C61 partly oxidised to formylglycine
T1 sequence (I3U6E8 1-491 limits assumed): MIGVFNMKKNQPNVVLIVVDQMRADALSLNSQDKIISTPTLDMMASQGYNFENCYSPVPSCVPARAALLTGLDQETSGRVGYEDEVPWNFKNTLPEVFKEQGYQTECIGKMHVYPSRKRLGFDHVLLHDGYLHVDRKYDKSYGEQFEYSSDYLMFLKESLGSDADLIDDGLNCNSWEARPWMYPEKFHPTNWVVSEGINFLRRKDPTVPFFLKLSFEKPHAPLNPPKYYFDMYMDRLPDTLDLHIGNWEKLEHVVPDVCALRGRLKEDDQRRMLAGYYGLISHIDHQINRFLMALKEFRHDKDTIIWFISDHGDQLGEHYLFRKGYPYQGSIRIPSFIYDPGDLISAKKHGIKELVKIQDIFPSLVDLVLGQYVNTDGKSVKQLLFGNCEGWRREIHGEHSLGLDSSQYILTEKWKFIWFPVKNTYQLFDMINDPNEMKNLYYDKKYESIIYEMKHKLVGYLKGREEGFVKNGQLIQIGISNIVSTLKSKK
As to the kind of experiment: p-nitrophenol colorimetric assay at […] nm, Lineweaver-Burk. The data set is classed as biochemical. The following applies: read-out: Kinetic parameters / Km (×10^-3 M); 50 mM sodium acetate pH 4.5, 1 mM MnCl2, 37 °C.

The target in data set [1] is arylsulfatase from Enterococcus faecium (EfAS), wild type (Enterococcus faecium). Description: crystal structure; vapor diffusion at 17°C, 0.1 M sodium cacodylate pH 6.4, 8% PEG3350, 0.2 M MnCl2; space group P42(1)2, two molecules in the asymmetric unit, tetramer through symmetry-related operations.
Substrate in data set [2]: O=[N+]([O-])c1ccc(OP(=O)(O)O)cc1
Description: purified protein. The data set is classed as biochemical, Enterococcus faecium. The settings on record: 50 mM sodium acetate pH 4.5, 1 mM MnCl2, 37 °C.

Substrate in data set [3]: O=[N+]([O-])c1ccc(OS(=O)(=O)O)cc1
As to the kind of experiment: purified protein. It is filed as biochemical, Enterococcus faecium. The following applies: 50 mM sodium acetate pH 4.5, 1 mM MnCl2, 37 °C.

`O=[N+]([O-])c1ccc(OP(=O)(O)c2ccccc2)cc1` [p-nitrophenyl phenylphosphonate]: on EfAS, the Km was found to be 1410 µM.
For the molecule “arylsulfatase from Enterococcus faecium (EfAS), wild type (enzyme)”, in data set [1], the stoichiometry N (in general, the number of molecules, sites or subunits per partner or assembly) came out at 4.

B1: EfAS (Enterococcus faecium DO) (protein)
chain: T1 sequence (I3U6E8 1-491 limits assumed)
notes: synthetic codon-optimised gene in pSMT3, E. coli BL21(DE3); His6-SUMO tag removed by Ulp1; homotetramer, 323 kDa by SEC; residues 9-488 modelled; C61 partly oxidised to formylglycine
As to B1, in the data set “purified protein [2]”, the Km came to 1285 µM; the kcat (as a rule, the number of substrate molecules converted per active site and unit of time at saturation) came to 0.0318 s⁻¹; the kcat/Km (usually the second-order rate constant that governs catalysis at low substrate concentration) was 24.8 M⁻¹ s⁻¹. In addition, in “purified protein [3]”, the Km worked out at 677 µM, the kcat is 0.0831 s⁻¹ and the kcat/Km was 123 M⁻¹ s⁻¹.
